In assay [1] the target is T1, recombinant, untagged TNF-gamma-beta protein (aa 72-251) from E. coli (human, UniProt O95150 72-251).
T1 construct: Purified from E. coli
T1 sequence (looked up): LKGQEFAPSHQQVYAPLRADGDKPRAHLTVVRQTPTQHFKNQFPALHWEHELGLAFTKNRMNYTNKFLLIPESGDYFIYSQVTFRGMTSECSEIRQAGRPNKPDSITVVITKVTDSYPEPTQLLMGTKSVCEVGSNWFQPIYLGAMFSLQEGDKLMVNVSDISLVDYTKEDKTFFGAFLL
Description: BIAcore 3000 (SPR), receptor-Fc amine-coupled to CM5 chip, TNF-gamma-beta in flow. The protocol: TNFR-Fc were covalently immobilized to the BIAcore sensor chip (CM5 chip) via amine groups using N-ethyl-N′-(dimethylaminopropyl) carbodiimide/N-hydroxysuccinimide chemistry. […] The amount of bound protein was determined during washing of the flow cell with HBS buffer (10 mM HEPES, pH 7.4, 150 mM NaCl, 3.4 mM EDTA, 0.005% Surfactant P20). The flow cell surface was regenerated by displacing bound protein by washing with 20 microliters of 10 mM glycine-HCl, pH 2.3. For kinetic analysis, the on and off rates were determined using the kinetic evaluation program in BIAevaluation 3 software using a 1:1 binding model and the global analysis method.

The target in assay [2] is T2, FLAG-tagged soluble form of TNF-gamma-beta (aa 72-251) (human, UniProt O95150 72-251).
T2 construct: also called FLAG-TL1β; FLAG-TNF-gamma-beta; not shown: FLAG tag of vector pFLAGCMV1
T2 sequence (looked up): T1 sequence (looked up)
Kind of assay: co-immunoprecipitation with protein A-Sepharose, anti-Flag M2 immunoblot. The text has this:
The beads were then precipitated and washed extensively with PBST buffer (PBS, 0.5% Triton X-100) before boiled in SDS-sample buffer. Proteins were resolved on 4-20% Tris-Glycine gels (NOVEX), transferred to nitrocellulose membranes, and blotted with anti-Flag M2 monoclonal antibody (1 microgram/ml, Sigma) and horseradish peroxidase (HRP)-conjugated goat anti-mouse IgG antibody (0.5 microgram/ml).

For assay [3], the target named is T3, full length TNF-gamma-beta expressed on the cell surface (human, UniProt O95150 1-251).
T3 construct: whole, on cells; also called TNF-gamma-beta expressing cells
T3 sequence (looked up): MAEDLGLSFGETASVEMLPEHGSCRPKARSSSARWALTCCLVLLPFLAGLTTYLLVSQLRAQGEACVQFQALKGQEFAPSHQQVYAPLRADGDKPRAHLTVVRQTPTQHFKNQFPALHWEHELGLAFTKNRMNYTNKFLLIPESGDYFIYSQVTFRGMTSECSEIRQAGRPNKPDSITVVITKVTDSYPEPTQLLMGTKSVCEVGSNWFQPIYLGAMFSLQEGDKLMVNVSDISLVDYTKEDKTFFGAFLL
Kind of assay: flow cytometry on HEK293F stable transfectants expressing full length TNF-gamma-beta. The protocol:
TR6 has been previously described as a decoy receptor (Pitti et al., Nature 396:699-703 (1998); Yu et al., J. Biol Chem. 274:13733-6 (1999)) capable of competing with Fas and HveA for binding of FasL and LIGHT, respectively.
One million cells, in 0.1 ml of FACS buffer (PBS, 0.1% BSA, 0.1% NaN₃), were incubated with 0.1-1 microgram of protein or antibody at RT for 15 min. The cells were washed with 3 ml of FACS buffer, reacted with biotinylated primary antibody, and stained with PE-conjugated secondary antibody at RT for 15 min. Cells were then washed again, resuspended in 0.5 microgram/ml of propidium iodide, and live cells were gated and analyzed on a FACScan using the CellQuest software (BD Biosciences).

B1: BCMA-Fc (Fc fusion, human, UniProt Q02223 1-54, looked up)
chain: MLQMAGQCSQNEYFDSLLHACIPCQLRCSSNTPPLTCQRYCNASVTNSVKGTNA
notes: Control receptor surface of the BIAcore analysis; not shown: Fc
Turning to B1, in assay [1], the binding result is recorded as “no binding (tested: 3-370 nM)”.

B2: extracellular domain of human TACI (aa 1-159) fused at its C-terminus to the Fc domain of human IgG1 (Fc fusion, UniProt O14836 1-159, looked up, not shown: a dimerising Fc or GST)
chain: MSGLGRSRRGGRSRVDQEERFPQGLWTGVAMRSCPEEQYWDPLLGTCMSCKTICNHQSQRTCAAFCRSLSCRKEQGKFYDHLLRDCISCASICGQHPKQCAYFCENKLRSPVNLPPELRRQRSGEVENNSDNSGRYQGLEHRGSEASPALPGLKLSADQ
notes: range 1-159; also called TACI-Fc
As for B2, the binding result in assay [2] and in assay [3] was “no binding” in each case.

These data come from patent US20030170203A1 (Human Genome Sciences, published 2003).
